# Where no end group is shown, it is not given here.
# B1: NK-displaying M13 phage (β-NGF-binding peptide NK displayed on M13 phage) (peptide)
# peptide: NERALTLGEEGAVVK
# modifications: also: displayed on M13 phage
# Target: β-subunit of nerve growth factor (UniProt P01138 122-241)
# Test: ELISA
# Sequence of β-subunit of nerve growth factor (P01138 122-241): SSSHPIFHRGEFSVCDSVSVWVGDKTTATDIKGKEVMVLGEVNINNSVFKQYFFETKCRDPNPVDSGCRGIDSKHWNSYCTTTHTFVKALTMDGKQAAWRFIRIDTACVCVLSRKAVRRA
binder,measurement,value
B1,fold increase in ELISA absorbance,4 fold

# Source: publication PMC11927663 (Science Advances, 2025)
